Measured values reported in patent publication US20140072613A1 (published 2014).

Legend:
Assay in all cases: cell-based or functional assay
Ros(h) = Ros(h) (human, UniProt P08922 1883-2347, limits assumed)
GRK6(h) = GRK6(h) (human, UniProt P43250 1-576)
SRPK1(h) = SRPK1(h) (human, UniProt Q96SB4 1-655)
6SK3β(h) = 6SK3β(h) (human, UniProt P49841 1-420)
Rsk4(h) = Rsk4(h) (human, UniProt Q9UK32 1-745, limits assumed)
Fms(h) = biological target: T1, Fms(h) (human, UniProt P07333 538-972, limits assumed)
T1 sequence (looked up): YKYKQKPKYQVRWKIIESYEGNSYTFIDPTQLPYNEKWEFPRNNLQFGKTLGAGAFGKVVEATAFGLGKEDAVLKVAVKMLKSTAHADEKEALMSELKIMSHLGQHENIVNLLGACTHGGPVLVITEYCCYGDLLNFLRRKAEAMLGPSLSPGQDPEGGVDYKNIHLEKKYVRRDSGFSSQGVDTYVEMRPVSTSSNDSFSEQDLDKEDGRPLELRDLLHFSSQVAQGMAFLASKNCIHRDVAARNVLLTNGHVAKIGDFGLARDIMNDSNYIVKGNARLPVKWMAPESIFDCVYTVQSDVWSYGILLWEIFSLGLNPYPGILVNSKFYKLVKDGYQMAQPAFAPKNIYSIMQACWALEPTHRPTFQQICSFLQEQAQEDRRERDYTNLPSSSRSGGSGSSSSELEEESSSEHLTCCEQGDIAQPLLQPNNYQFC

Met(M1268T)(h) = Met(M1268T)(h) (human, UniProt P08581-2 974-1408, limits assumed)
Abl(h) = Abl(h) (human, UniProt P00519 27-1130, limits assumed)
IGF-1R(h), activated = IGF-1R(h), activated (human, UniProt P08069 959-1367, limits assumed)
ARK5(h) = biological target: T2, ARK5(h) (human, UniProt O60285 1-661, limits assumed)
T2 sequence (looked up): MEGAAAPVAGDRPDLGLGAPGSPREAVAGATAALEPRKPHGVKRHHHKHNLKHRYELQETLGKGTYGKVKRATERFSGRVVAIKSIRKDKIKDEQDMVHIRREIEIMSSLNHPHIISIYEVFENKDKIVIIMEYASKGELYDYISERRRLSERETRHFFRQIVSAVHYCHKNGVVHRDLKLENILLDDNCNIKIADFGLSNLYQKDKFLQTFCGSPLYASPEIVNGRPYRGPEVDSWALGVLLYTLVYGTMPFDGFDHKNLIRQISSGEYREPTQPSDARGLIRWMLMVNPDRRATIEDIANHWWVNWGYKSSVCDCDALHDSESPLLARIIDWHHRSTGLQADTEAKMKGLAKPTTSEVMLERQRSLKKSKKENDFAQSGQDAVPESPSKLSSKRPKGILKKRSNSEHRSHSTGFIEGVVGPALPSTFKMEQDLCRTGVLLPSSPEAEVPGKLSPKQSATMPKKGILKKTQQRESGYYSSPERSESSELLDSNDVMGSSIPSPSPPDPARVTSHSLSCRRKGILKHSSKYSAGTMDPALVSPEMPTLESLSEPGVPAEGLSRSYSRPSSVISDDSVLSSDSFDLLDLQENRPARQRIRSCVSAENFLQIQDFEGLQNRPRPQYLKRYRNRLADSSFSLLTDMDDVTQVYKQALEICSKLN

mTOR/FKBP12(h) = mTOR/FKBP12(h) (human, UniProt P42345 1362-2549; P62942 1-108)
MKK7β(h) = biological target: T3, MKK7β(h) (human, UniProt O14733 1-419, limits assumed)
T3 sequence (looked up): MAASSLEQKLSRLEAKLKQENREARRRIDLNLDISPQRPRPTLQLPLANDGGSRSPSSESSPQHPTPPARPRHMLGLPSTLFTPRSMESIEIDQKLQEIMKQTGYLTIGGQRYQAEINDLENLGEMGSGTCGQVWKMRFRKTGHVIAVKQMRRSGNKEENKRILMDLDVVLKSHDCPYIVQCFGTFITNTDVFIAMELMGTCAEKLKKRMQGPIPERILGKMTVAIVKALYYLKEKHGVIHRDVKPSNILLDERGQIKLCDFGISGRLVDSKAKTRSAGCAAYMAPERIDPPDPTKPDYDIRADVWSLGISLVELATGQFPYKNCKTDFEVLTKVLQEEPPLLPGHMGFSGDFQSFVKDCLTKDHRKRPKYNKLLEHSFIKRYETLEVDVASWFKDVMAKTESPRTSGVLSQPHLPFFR

MSSK1(h) = MSSK1(h) (human, UniProt Q9UPE1 1-567, limits assumed)
PDK1(h) = biological target: T4, PDK1(h) (human, UniProt O15530 1-556, limits assumed)
T4 sequence (looked up): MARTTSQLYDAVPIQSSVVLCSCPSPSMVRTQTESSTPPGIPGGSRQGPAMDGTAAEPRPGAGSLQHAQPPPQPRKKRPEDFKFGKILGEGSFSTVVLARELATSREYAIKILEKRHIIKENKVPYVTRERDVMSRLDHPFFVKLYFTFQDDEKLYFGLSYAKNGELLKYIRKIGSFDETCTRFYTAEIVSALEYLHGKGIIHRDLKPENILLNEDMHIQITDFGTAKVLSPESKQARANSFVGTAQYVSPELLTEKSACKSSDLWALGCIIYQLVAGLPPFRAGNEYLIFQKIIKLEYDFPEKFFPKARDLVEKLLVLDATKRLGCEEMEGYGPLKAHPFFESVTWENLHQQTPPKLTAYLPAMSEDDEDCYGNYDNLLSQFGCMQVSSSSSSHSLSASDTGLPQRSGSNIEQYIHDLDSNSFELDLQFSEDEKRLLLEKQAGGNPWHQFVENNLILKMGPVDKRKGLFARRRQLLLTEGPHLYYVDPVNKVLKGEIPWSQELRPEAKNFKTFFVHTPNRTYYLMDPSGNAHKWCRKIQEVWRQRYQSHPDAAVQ

IGF-1R(h), activated, sequence (P08069 959-1367 limits assumed): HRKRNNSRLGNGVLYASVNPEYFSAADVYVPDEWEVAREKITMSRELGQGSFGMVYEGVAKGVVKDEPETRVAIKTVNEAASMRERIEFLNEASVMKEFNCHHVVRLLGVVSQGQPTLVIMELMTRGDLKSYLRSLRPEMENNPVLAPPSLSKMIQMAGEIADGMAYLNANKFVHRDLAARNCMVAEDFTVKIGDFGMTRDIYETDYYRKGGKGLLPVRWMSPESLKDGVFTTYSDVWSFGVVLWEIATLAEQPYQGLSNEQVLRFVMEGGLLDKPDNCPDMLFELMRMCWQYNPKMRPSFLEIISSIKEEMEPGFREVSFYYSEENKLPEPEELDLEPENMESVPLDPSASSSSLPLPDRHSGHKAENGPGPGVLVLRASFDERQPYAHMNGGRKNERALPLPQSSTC
Ros(h), sequence (P08922 1883-2347 limits assumed): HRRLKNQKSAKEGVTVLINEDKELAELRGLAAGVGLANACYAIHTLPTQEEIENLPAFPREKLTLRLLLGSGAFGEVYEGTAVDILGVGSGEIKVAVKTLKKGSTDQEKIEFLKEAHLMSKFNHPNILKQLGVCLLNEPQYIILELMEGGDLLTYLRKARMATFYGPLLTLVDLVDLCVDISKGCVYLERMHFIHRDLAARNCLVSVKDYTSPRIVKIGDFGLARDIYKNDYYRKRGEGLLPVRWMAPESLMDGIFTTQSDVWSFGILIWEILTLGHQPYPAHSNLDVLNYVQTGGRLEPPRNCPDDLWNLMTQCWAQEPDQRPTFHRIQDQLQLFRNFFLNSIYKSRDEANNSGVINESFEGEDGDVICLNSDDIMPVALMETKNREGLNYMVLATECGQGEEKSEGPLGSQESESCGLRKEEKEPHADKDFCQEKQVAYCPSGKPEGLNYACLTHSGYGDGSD
MSSK1(h), sequence (Q9UPE1 whole entry): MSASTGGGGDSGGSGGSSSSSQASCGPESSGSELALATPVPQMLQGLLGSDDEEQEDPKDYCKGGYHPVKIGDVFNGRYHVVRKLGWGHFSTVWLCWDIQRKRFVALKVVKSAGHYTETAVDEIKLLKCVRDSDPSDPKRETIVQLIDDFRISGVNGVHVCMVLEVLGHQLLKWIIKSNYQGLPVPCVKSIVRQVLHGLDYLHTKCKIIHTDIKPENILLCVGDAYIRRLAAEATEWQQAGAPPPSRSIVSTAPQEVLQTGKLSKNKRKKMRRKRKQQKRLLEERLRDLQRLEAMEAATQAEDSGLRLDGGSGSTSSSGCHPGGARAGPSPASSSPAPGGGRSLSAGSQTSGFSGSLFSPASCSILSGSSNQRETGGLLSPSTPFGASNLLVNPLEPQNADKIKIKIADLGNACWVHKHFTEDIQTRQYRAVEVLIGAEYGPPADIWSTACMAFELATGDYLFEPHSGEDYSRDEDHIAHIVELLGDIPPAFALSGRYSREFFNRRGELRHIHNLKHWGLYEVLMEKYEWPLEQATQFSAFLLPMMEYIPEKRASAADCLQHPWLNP
GRK6(h), sequence (P43250 whole entry): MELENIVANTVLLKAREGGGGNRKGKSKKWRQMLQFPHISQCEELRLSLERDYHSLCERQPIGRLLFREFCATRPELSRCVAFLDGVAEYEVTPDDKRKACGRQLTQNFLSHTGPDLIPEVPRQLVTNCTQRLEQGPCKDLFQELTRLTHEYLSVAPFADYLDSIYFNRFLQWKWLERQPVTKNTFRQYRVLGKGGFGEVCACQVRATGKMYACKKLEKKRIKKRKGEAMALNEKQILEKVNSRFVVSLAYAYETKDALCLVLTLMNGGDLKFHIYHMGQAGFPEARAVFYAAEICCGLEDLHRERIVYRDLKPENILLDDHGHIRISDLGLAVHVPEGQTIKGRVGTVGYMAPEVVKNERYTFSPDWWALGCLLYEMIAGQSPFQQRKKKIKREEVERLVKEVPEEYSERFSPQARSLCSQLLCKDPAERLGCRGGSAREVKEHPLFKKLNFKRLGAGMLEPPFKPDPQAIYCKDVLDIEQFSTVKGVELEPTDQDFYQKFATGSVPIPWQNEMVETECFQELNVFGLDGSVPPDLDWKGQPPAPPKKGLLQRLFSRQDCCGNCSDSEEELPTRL
6SK3β(h), sequence (P49841 whole entry): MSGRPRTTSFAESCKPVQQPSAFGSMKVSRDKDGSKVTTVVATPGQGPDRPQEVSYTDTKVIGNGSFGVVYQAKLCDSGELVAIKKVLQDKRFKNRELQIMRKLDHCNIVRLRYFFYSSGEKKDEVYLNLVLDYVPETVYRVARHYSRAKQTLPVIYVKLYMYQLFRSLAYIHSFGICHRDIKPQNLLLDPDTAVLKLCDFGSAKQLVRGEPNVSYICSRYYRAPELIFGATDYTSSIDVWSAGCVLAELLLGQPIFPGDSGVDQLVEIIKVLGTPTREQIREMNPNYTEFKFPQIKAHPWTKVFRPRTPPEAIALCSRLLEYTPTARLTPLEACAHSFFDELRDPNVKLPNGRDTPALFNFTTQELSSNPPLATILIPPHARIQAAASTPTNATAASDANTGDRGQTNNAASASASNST
Rsk4(h), sequence (Q9UK32 whole entry): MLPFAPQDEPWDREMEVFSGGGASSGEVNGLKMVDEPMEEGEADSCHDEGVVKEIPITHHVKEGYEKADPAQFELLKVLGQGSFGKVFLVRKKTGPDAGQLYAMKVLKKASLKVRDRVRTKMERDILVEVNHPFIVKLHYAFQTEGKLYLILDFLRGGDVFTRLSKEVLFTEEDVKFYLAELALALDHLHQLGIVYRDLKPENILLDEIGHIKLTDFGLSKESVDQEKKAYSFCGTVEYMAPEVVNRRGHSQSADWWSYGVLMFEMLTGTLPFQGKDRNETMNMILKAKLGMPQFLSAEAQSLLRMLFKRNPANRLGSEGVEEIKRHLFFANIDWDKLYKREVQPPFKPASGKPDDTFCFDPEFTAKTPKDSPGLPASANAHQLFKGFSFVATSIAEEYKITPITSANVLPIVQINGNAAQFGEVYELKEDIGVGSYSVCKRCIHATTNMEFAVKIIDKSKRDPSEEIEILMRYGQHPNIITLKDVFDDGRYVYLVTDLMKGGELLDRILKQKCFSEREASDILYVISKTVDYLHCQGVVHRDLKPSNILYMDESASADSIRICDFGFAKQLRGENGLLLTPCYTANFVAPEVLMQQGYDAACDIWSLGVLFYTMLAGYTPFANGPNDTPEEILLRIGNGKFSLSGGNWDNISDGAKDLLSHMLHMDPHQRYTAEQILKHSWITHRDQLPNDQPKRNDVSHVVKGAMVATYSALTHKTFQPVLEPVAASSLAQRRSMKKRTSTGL
mTOR/FKBP12(h), sequence (P42345 1362-2549 limits assumed, chain 1 of 2): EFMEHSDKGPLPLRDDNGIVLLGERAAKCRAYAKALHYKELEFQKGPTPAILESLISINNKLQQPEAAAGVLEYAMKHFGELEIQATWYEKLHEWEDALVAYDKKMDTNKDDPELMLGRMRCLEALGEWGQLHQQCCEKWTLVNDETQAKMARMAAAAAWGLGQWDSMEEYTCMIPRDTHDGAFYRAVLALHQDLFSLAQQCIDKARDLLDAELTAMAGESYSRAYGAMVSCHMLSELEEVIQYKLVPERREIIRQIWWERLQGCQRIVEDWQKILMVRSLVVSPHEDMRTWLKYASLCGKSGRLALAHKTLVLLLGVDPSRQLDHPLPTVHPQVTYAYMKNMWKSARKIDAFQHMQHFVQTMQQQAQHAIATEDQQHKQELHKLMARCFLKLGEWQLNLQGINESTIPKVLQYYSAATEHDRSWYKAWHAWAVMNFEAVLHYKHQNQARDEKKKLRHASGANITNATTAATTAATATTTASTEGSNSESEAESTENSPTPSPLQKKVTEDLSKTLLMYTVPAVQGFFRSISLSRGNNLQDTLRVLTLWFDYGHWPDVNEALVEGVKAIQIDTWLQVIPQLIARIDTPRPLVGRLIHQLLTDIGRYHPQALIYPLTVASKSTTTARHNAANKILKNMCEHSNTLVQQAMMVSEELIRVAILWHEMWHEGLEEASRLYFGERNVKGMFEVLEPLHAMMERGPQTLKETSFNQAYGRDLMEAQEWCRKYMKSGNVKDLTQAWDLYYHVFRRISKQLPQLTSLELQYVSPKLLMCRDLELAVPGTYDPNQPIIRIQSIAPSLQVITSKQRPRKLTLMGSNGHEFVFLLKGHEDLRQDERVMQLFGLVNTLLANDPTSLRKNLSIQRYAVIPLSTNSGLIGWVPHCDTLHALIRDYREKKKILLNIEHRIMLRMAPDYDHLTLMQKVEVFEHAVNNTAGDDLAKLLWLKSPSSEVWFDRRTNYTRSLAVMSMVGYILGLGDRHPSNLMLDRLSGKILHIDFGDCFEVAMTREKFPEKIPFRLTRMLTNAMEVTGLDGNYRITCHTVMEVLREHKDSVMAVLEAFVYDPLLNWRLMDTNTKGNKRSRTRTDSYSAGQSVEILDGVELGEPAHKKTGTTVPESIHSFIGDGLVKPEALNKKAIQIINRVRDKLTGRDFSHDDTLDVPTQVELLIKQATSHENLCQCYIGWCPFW
mTOR/FKBP12(h), sequence (P62942 whole entry, chain 2 of 2): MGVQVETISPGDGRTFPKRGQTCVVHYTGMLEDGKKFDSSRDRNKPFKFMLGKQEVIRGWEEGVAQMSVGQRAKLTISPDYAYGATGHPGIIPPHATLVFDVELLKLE

KAFAKLAARLYRKALARQLGVAA [MMI-0400]
% activity, 100 µM (Ros(h)): 99%
% activity, 100 µM (GRK6(h)): 141%
% activity, 100 µM (SRPK1(h)): 96%
% activity, 100 µM (6SK3β(h)): 202%
% activity, 100 µM (Rsk4(h)): 91%
% activity, 100 µM (Fms(h)): 37%
% activity, 100 µM (Met(M1268T)(h)): 265%
% activity, 100 µM (Abl(h)): 84%
% activity, 100 µM (IGF-1R(h), activated): 77%
% activity, 100 µM (ARK5(h)): 69%
% activity, 100 µM (mTOR/FKBP12(h)): 125%
% activity, 100 µM (MKK7β(h)): 94%
% activity, 100 µM (MSSK1(h)): 75%
% activity, 100 µM (PDK1(h)): 159%

FAKLAARLYRKALARQLGVAA [MMI-0300]
% activity, 100 µM (Ros(h)): 95%
% activity, 100 µM (GRK6(h)): 147%
% activity, 100 µM (SRPK1(h)): 90%
% activity, 100 µM (6SK3β(h)): 205%
% activity, 100 µM (Rsk4(h)): 90%
% activity, 100 µM (Fms(h)): 45%
% activity, 100 µM (Met(M1268T)(h)): 255%
% activity, 100 µM (Abl(h)): 69%
% activity, 100 µM (IGF-1R(h), activated): 80%
% activity, 100 µM (ARK5(h)): 78%
% activity, 100 µM (mTOR/FKBP12(h)): 145%
% activity, 100 µM (MKK7β(h)): 100%
% activity, 100 µM (MSSK1(h)): 77%
% activity, 100 µM (PDK1(h)): 135%
